Data published in patent US20250277044A1 (BEIJING HANMI PHARMACEUTICAL, published 2025).
Each block holds one binder with its values, some of them ahead of it.

What was measured:
recombinant human OX40 = target: T1, recombinant human OX40 (human, UniProt P43489 29-216); assay: ELISA, coated antigen 1 µg/mL
T1 sequence (looked up): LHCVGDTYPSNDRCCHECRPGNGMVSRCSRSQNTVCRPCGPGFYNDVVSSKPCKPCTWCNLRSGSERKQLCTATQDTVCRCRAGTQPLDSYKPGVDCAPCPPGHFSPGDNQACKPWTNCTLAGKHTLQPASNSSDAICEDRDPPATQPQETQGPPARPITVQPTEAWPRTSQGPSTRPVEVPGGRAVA

recombinant human TIM-3 = recombinant human TIM-3 (human, UniProt Q8TDQ0 22-200); assay: ELISA, coated antigen 1 µg/mL
recombinant human LAG-3 = target: T2, recombinant human LAG-3 (human, UniProt P18627 23-450); assay: ELISA, coated antigen 1 µg/mL
T2 sequence (looked up): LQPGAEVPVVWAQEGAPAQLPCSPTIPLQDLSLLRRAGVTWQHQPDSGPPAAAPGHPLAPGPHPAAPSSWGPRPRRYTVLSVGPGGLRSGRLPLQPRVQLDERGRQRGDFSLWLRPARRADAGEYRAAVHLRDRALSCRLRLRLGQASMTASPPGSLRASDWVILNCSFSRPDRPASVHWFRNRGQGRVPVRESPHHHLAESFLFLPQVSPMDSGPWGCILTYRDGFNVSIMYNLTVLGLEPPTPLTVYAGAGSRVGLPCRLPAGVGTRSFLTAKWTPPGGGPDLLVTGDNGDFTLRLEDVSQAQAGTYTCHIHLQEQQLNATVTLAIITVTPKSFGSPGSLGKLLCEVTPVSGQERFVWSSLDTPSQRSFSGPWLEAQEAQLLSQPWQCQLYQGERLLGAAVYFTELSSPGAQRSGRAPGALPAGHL

recombinant human CTLA4 = recombinant human CTLA4 (human, UniProt P16410 36-162); assay: ELISA, coated antigen 1 µg/mL
Chain of recombinant human CTLA4 (P16410 36-162 limits assumed): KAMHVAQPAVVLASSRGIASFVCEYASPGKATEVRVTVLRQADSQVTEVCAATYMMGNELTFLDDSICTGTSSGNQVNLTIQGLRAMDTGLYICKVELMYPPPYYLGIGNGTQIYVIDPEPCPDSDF

recombinant human CD86 = target: T3, recombinant human CD86 (human, UniProt P42081 24-245, limits assumed); assay: ELISA, coated antigen 1 µg/mL
T3 construct: also called B7 family member
T3 sequence (looked up): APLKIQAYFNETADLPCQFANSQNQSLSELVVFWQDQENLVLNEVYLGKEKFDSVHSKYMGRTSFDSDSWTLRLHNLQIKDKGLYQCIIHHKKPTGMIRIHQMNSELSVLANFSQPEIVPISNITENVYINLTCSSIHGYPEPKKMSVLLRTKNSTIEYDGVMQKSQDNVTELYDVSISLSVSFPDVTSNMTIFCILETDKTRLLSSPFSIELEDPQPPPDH

recombinant human CD27 = recombinant human CD27 (human, UniProt P26842 20-192); assay: ELISA, coated antigen 1 µg/mL
Chain of recombinant human CD27 (P26842 20-192 limits assumed): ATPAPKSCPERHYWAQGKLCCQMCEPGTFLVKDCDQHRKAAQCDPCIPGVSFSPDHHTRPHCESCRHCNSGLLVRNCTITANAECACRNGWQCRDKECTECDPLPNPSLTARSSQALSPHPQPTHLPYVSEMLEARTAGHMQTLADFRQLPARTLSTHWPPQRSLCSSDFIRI

recombinant human BTLA = target: T4, recombinant human BTLA (human, UniProt Q7Z6A9 31-157, limits assumed); assay: ELISA, coated antigen 1 µg/mL
T4 construct: also called CD28 family member

recombinant mouse 4-1BB = target: T5, recombinant mouse 4-1BB (mouse, UniProt P20334 24-187); assay: ELISA, coated antigen 1 µg/mL
T5 construct: Bought protein, coated on ELISA plate
T5 sequence (looked up): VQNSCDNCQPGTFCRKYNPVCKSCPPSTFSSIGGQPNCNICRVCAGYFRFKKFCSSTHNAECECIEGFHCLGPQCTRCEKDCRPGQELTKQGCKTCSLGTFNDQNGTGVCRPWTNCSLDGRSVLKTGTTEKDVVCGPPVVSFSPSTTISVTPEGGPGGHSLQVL

recombinant human CD28 = target: T6, recombinant human CD28 (human, UniProt P10747 19-152); assay: ELISA, coated antigen 1 µg/mL
T6 construct: also called CD28 family member

recombinant human ICOS = target: T7, recombinant human ICOS (human, UniProt Q9Y6W8 21-141); assay: ELISA, coated antigen 1 µg/mL
T7 construct: also called CD28 family member
T7 sequence (looked up): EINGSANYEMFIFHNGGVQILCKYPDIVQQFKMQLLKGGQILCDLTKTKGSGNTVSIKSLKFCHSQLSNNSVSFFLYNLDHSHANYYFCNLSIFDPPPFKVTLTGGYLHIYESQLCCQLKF

recombinant human PDI = target: T8, recombinant human PDI (human, UniProt Q15116 25-167); assay: ELISA, coated antigen 1 µg/mL
T8 construct: also called PD1 (printed 'PDI'); CD28 family member
T8 sequence (Q15116 25-167 limits assumed): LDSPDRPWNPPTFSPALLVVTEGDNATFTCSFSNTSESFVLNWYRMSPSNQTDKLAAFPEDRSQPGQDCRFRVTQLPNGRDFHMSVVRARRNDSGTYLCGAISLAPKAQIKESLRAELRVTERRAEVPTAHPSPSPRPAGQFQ

recombinant human CD80 = target: T9, recombinant human CD80 (human, UniProt P33681 35-242); assay: ELISA, coated antigen 1 µg/mL
T9 construct: also called B7 family member
T9 sequence (looked up): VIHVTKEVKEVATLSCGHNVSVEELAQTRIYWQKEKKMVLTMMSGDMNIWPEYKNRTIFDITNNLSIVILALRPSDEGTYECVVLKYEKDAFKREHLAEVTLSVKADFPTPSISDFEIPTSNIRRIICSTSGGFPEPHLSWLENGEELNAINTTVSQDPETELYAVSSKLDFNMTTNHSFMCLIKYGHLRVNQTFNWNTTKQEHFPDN

recombinant human B7-H2 = target: T10, recombinant human B7-H2 (human, UniProt O75144 19-256, limits assumed); assay: ELISA, coated antigen 1 µg/mL
T10 construct: also called B7 family member
T10 sequence (looked up): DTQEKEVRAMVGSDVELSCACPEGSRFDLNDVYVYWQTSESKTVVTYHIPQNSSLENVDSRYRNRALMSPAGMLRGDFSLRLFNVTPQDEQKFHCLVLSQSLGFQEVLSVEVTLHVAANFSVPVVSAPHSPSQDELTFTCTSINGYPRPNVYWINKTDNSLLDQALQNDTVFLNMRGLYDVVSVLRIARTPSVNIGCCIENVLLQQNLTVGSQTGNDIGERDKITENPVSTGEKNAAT

recombinant human PD-L2 = target: T11, recombinant human PD-L2 (human, UniProt Q9BQ51 20-220); assay: ELISA, coated antigen 1 µg/mL
T11 construct: also called B7 family member
T11 sequence (looked up): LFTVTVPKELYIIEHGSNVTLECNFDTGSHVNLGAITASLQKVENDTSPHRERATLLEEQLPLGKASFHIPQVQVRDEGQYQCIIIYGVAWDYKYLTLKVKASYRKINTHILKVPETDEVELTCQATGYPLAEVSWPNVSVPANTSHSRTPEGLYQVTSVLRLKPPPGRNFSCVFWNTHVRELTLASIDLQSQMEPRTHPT

[1] = target: T12, recombinant human 4-1BB (Sino Biological Inc., catalog number 10041-H08H) (human, UniProt Q07011 24-186); assay: ELISA, coated recombinant human 4-1BB, steps of Example 4
T12 construct: Bought protein coated on ELISA plates; treated as the same molecule; also called recombinant human 4-1BB-His protein; CD137
T12 sequence (Q07011 24-186 limits assumed): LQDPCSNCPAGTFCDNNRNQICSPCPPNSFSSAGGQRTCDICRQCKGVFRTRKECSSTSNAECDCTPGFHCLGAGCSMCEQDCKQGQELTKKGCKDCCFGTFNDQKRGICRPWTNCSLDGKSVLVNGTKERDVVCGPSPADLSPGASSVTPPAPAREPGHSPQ

- binding result (recombinant human OX40): no binding
- binding result (recombinant human TIM-3): no binding
- binding result (recombinant human LAG-3): no binding
- binding result (recombinant human CTLA4): no binding
- binding result (recombinant human CD86): no binding
- binding result (recombinant human CD27): no binding
- binding result (recombinant human BTLA): no binding
- binding result (recombinant mouse 4-1BB): no binding
- binding result (recombinant human CD28): no binding
- binding result (recombinant human ICOS): no binding
- binding result (recombinant human PDI): no binding
- binding result (recombinant human CD80): no binding
- binding result (recombinant human B7-H2): no binding
- binding result (recombinant human PD-L2): no binding
B1: chimeric anti-human 4-1BB monoclonal antibody mAb-33-83 (antibody, human IgG4 S228P, kappa, V domains shown)
VH: QVQLQQPGAELVRPGASMKLSCKASGYTFTSYWINWVKQRPGQGLEWIGNIYPSDSYTNYNQKFKDKATLTVDKSSSTAYMQLSSPTSEDSAVYYCTRLYYGSSPFDYWGQGTTLTVSS
VL: DIQMTQTTSSLSASLGDRVTISCRASQDISNYLNWYQQKPDGTVKLLIYHTSRLHSGVPPRFSGSGSGTNYSLTISNLEQEDIATYFCQQGHTLPRTFGGGTKLEIKR
notes: expressed in ExpiCHO cells; also called Chimeric mAbs

- binding result [1]: binds
B2: humanized anti-human 4-1BB monoclonal antibody BH3145b (antibody, human IgG4 S228P, kappa, V domains shown)
VH: QVQLVQSGAEVKKPGSSVKVSCKASGYTFTSYWINWVRQAPGQGLEWMGNIYPSDSYTNYNQKFKDRVTITADKSTSTAYMELSSLRSEDTAVYYCARLYYGSSPFDYWGQGTTVTVSS
VL: DIQMTQSPSSLSASVGDRVTITCRASQDISNYLNWYQQKPGKVPKLLIYHTSRLHSGVPSRFSGSGSGTDFTLTISSLQPEDVATYYCQQGHTLPRTFGGGTKVEIKR
notes: also called z0
